Numbered stars: 1 amine (or outer) side, 2 acyl side, 3 side chain; on linkers, the order of the positions; unused ones are H or OH. Bridge positions count the residues as written; N and C are the ends. Side chains are listed from the residue outwards. Ends that are not written are not given here. * marks the point of attachment. C20 diacid = O=C(O)CCCCCCCCCCCCCCCCCCC(=O)*; γGlu = O=C(O)[C@H](CCC(=O)[*:2])N[*:1]; AEEA = NCCOCCOCC(=O)O

Among the data in patent US20140087995A1 (published 2014) are IC50 values, retold here.

To fix the notation:
T1: human amylin receptor (amylin 3(a) receptor: human calcitonin receptor with RAMP-3) (human, UniProt P30988 25-474; O60896 24-148)
T1 construct: whole, on cells; also called hAmylin-R; hAmylinR
T1 sequence (looked up) 1: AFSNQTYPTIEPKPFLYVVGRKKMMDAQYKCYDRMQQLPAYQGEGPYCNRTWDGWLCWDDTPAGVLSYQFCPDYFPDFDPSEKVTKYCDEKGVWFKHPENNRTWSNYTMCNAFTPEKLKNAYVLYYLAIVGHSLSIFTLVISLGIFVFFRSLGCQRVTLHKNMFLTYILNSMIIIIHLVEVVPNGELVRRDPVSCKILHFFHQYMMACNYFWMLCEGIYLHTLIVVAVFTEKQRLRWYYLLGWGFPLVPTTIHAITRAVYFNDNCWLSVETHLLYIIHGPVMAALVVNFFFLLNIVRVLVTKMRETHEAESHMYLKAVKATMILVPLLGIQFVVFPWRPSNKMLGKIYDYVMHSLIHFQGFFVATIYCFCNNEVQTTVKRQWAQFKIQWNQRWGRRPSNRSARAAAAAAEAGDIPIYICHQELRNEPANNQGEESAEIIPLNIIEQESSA
T1 sequence (looked up) 2: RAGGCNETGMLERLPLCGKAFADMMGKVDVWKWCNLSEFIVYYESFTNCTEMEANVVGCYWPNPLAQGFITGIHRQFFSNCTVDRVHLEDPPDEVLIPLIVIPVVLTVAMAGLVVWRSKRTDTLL

B1: N^ε1-[2-[2-[2-[[(4S)-4-carboxy-4-(19-carboxynonadecanoylamino)butanoyl]amino]ethoxy]ethoxy]acetyl]-[Arg17,Pro21,Pro27]-h-amylin (peptide)
peptide: K([AEEA-γGlu-C20 diacid])CNTATCATQRLANFLRHSSPNFGAIPSSTNVGSNTY-NH2
modifications: disulfide 2-7; N-terminus assumed
SMILES: CC[C@H](C)[C@H](NC(=O)[C@H](C)NC(=O)CNC(=O)[C@H](Cc1ccccc1)NC(=O)[C@H](CC(N)=O)NC(=O)[C@@H]1CCCN1C(=O)[C@H](CO)NC(=O)[C@H](CO)NC(=O)[C@H](Cc1c[nH]cn1)NC(=O)[C@H](CCCNC(=N)N)NC(=O)[C@H](CC(C)C)NC(=O)[C@H](Cc1ccccc1)NC(=O)[C@H](CC(N)=O)NC(=O)[C@H](C)NC(=O)[C@H](CC(C)C)NC(=O)[C@H](CCCNC(=N)N)NC(=O)[C@H](CCC(N)=O)NC(=O)[C@@H](NC(=O)[C@H](C)NC(=O)[C@@H]1CSSC[C@H](NC(=O)[C@@H](N)CCCCNC(=O)COCCOCCNC(=O)CC[C@H](NC(=O)CCCCCCCCCCCCCCCCCCC(=O)O)C(=O)O)C(=O)N[C@@H](CC(N)=O)C(=O)N[C@@H]([C@@H](C)O)C(=O)N[C@@H](C)C(=O)N[C@@H]([C@@H](C)O)C(=O)N1)[C@@H](C)O)C(=O)N1CCC[C@H]1C(=O)N[C@@H](CO)C(=O)N[C@@H](CO)C(=O)N[C@H](C(=O)N[C@@H](CC(N)=O)C(=O)N[C@H](C(=O)NCC(=O)N[C@@H](CO)C(=O)N[C@@H](CC(N)=O)C(=O)N[C@H](C(=O)N[C@@H](Cc1ccc(O)cc1)C(N)=O)[C@@H](C)O)C(C)C)[C@@H](C)O
notes: also called 41; compound 41
B2: N^ε1-[2-[2-[2-(19-carboxynonadecanoylamino)ethoxy]ethoxy]acetyl]-[Arg17,Pro21,Pro27]-h-amylin (peptide)
peptide: K([AEEA-C20 diacid])CNTATCATQRLANFLRHSSPNFGAIPSSTNVGSNTY-NH2
modifications: disulfide 2-7; N-terminus assumed
SMILES: CC[C@H](C)[C@H](NC(=O)[C@H](C)NC(=O)CNC(=O)[C@H](Cc1ccccc1)NC(=O)[C@H](CC(N)=O)NC(=O)[C@@H]1CCCN1C(=O)[C@H](CO)NC(=O)[C@H](CO)NC(=O)[C@H](Cc1c[nH]cn1)NC(=O)[C@H](CCCNC(=N)N)NC(=O)[C@H](CC(C)C)NC(=O)[C@H](Cc1ccccc1)NC(=O)[C@H](CC(N)=O)NC(=O)[C@H](C)NC(=O)[C@H](CC(C)C)NC(=O)[C@H](CCCNC(=N)N)NC(=O)[C@H](CCC(N)=O)NC(=O)[C@@H](NC(=O)[C@H](C)NC(=O)[C@@H]1CSSC[C@H](NC(=O)[C@@H](N)CCCCNC(=O)COCCOCCNC(=O)CCCCCCCCCCCCCCCCCCC(=O)O)C(=O)N[C@@H](CC(N)=O)C(=O)N[C@@H]([C@@H](C)O)C(=O)N[C@@H](C)C(=O)N[C@@H]([C@@H](C)O)C(=O)N1)[C@@H](C)O)C(=O)N1CCC[C@H]1C(=O)N[C@@H](CO)C(=O)N[C@@H](CO)C(=O)N[C@H](C(=O)N[C@@H](CC(N)=O)C(=O)N[C@H](C(=O)NCC(=O)N[C@@H](CO)C(=O)N[C@@H](CC(N)=O)C(=O)N[C@H](C(=O)N[C@@H](Cc1ccc(O)cc1)C(N)=O)[C@@H](C)O)C(C)C)[C@@H](C)O
notes: also called 43; compound 43
B3: N^ε-[2-[2-[2-[[(4S)-4-carboxy-4-(19-carboxynonadecanoylamino)butanoyl]amino]ethoxy]ethoxy]acetyl]Lys[Arg1,Arg17,Pro21,Pro27,His35]-h-amylin (peptide)
peptide: K([AEEA-γGlu-C20 diacid])RCNTATCATQRLANFLRHSSPNFGAIPSSTNVGSHTY-NH2
modifications: disulfide 3-8; N-terminus assumed
SMILES: CC[C@H](C)[C@H](NC(=O)[C@H](C)NC(=O)CNC(=O)[C@H](Cc1ccccc1)NC(=O)[C@H](CC(N)=O)NC(=O)[C@@H]1CCCN1C(=O)[C@H](CO)NC(=O)[C@H](CO)NC(=O)[C@H](Cc1c[nH]cn1)NC(=O)[C@H](CCCNC(=N)N)NC(=O)[C@H](CC(C)C)NC(=O)[C@H](Cc1ccccc1)NC(=O)[C@H](CC(N)=O)NC(=O)[C@H](C)NC(=O)[C@H](CC(C)C)NC(=O)[C@H](CCCNC(=N)N)NC(=O)[C@H](CCC(N)=O)NC(=O)[C@@H](NC(=O)[C@H](C)NC(=O)[C@@H]1CSSC[C@H](NC(=O)[C@H](CCCNC(=N)N)NC(=O)[C@@H](N)CCCCNC(=O)COCCOCCNC(=O)CC[C@H](NC(=O)CCCCCCCCCCCCCCCCCCC(=O)O)C(=O)O)C(=O)N[C@@H](CC(N)=O)C(=O)N[C@@H]([C@@H](C)O)C(=O)N[C@@H](C)C(=O)N[C@@H]([C@@H](C)O)C(=O)N1)[C@@H](C)O)C(=O)N1CCC[C@H]1C(=O)N[C@@H](CO)C(=O)N[C@@H](CO)C(=O)N[C@H](C(=O)N[C@@H](CC(N)=O)C(=O)N[C@H](C(=O)NCC(=O)N[C@@H](CO)C(=O)N[C@@H](Cc1c[nH]cn1)C(=O)N[C@H](C(=O)N[C@@H](Cc1ccc(O)cc1)C(N)=O)[C@@H](C)O)C(C)C)[C@@H](C)O
notes: also called 45; compound 45
B4: N^ε-[(4S)-4-carboxy-4-(19-carboxynonadecanoylamino)butanoyl]Lys[Arg1,Arg17,Pro21,Pro27,His35]-h-amylin (peptide)
peptide: K([γGlu-C20 diacid])RCNTATCATQRLANFLRHSSPNFGAIPSSTNVGSHTY-NH2
modifications: disulfide 3-8; N-terminus assumed
SMILES: CC[C@H](C)[C@H](NC(=O)[C@H](C)NC(=O)CNC(=O)[C@H](Cc1ccccc1)NC(=O)[C@H](CC(N)=O)NC(=O)[C@@H]1CCCN1C(=O)[C@H](CO)NC(=O)[C@H](CO)NC(=O)[C@H](Cc1c[nH]cn1)NC(=O)[C@H](CCCNC(=N)N)NC(=O)[C@H](CC(C)C)NC(=O)[C@H](Cc1ccccc1)NC(=O)[C@H](CC(N)=O)NC(=O)[C@H](C)NC(=O)[C@H](CC(C)C)NC(=O)[C@H](CCCNC(=N)N)NC(=O)[C@H](CCC(N)=O)NC(=O)[C@@H](NC(=O)[C@H](C)NC(=O)[C@@H]1CSSC[C@H](NC(=O)[C@H](CCCNC(=N)N)NC(=O)[C@@H](N)CCCCNC(=O)CC[C@H](NC(=O)CCCCCCCCCCCCCCCCCCC(=O)O)C(=O)O)C(=O)N[C@@H](CC(N)=O)C(=O)N[C@@H]([C@@H](C)O)C(=O)N[C@@H](C)C(=O)N[C@@H]([C@@H](C)O)C(=O)N1)[C@@H](C)O)C(=O)N1CCC[C@H]1C(=O)N[C@@H](CO)C(=O)N[C@@H](CO)C(=O)N[C@H](C(=O)N[C@@H](CC(N)=O)C(=O)N[C@H](C(=O)NCC(=O)N[C@@H](CO)C(=O)N[C@@H](Cc1c[nH]cn1)C(=O)N[C@H](C(=O)N[C@@H](Cc1ccc(O)cc1)C(N)=O)[C@@H](C)O)C(C)C)[C@@H](C)O
notes: also called 44; compound 44
B5: N^-1-[(4S)-4-carboxy-4-(19-carboxynonadecanoylamino)butanoyl]-Gly[Arg1,Arg17,Pro21,Pro27]-h-amylin (peptide)
peptide: {C20 diacid-γGlu}-GRCNTATCATQRLANFLRHSSPNFGAIPSSTNVGSNTY-NH2
modifications: disulfide 3-8
SMILES: CC[C@H](C)[C@H](NC(=O)[C@H](C)NC(=O)CNC(=O)[C@H](Cc1ccccc1)NC(=O)[C@H](CC(N)=O)NC(=O)[C@@H]1CCCN1C(=O)[C@H](CO)NC(=O)[C@H](CO)NC(=O)[C@H](Cc1c[nH]cn1)NC(=O)[C@H](CCCNC(=N)N)NC(=O)[C@H](CC(C)C)NC(=O)[C@H](Cc1ccccc1)NC(=O)[C@H](CC(N)=O)NC(=O)[C@H](C)NC(=O)[C@H](CC(C)C)NC(=O)[C@H](CCCNC(=N)N)NC(=O)[C@H](CCC(N)=O)NC(=O)[C@@H](NC(=O)[C@H](C)NC(=O)[C@@H]1CSSC[C@H](NC(=O)[C@H](CCCNC(=N)N)NC(=O)CNC(=O)CC[C@H](NC(=O)CCCCCCCCCCCCCCCCCCC(=O)O)C(=O)O)C(=O)N[C@@H](CC(N)=O)C(=O)N[C@@H]([C@@H](C)O)C(=O)N[C@@H](C)C(=O)N[C@@H]([C@@H](C)O)C(=O)N1)[C@@H](C)O)C(=O)N1CCC[C@H]1C(=O)N[C@@H](CO)C(=O)N[C@@H](CO)C(=O)N[C@H](C(=O)N[C@@H](CC(N)=O)C(=O)N[C@H](C(=O)NCC(=O)N[C@@H](CO)C(=O)N[C@@H](CC(N)=O)C(=O)N[C@H](C(=O)N[C@@H](Cc1ccc(O)cc1)C(N)=O)[C@@H](C)O)C(C)C)[C@@H](C)O
notes: also called 46; compound 46
B6: N^-1-[(4S)-4-carboxy-4-(19-carboxynonadecanoylamino)butanoyl]-Gly[Arg1,Arg17,Pro21,Pro27,His35]-h-amylin (peptide)
peptide: {C20 diacid-γGlu}-GRCNTATCATQRLANFLRHSSPNFGAIPSSTNVGSHTY-NH2
modifications: disulfide 3-8
SMILES: CC[C@H](C)[C@H](NC(=O)[C@H](C)NC(=O)CNC(=O)[C@H](Cc1ccccc1)NC(=O)[C@H](CC(N)=O)NC(=O)[C@@H]1CCCN1C(=O)[C@H](CO)NC(=O)[C@H](CO)NC(=O)[C@H](Cc1c[nH]cn1)NC(=O)[C@H](CCCNC(=N)N)NC(=O)[C@H](CC(C)C)NC(=O)[C@H](Cc1ccccc1)NC(=O)[C@H](CC(N)=O)NC(=O)[C@H](C)NC(=O)[C@H](CC(C)C)NC(=O)[C@H](CCCNC(=N)N)NC(=O)[C@H](CCC(N)=O)NC(=O)[C@@H](NC(=O)[C@H](C)NC(=O)[C@@H]1CSSC[C@H](NC(=O)[C@H](CCCNC(=N)N)NC(=O)CNC(=O)CC[C@H](NC(=O)CCCCCCCCCCCCCCCCCCC(=O)O)C(=O)O)C(=O)N[C@@H](CC(N)=O)C(=O)N[C@@H]([C@@H](C)O)C(=O)N[C@@H](C)C(=O)N[C@@H]([C@@H](C)O)C(=O)N1)[C@@H](C)O)C(=O)N1CCC[C@H]1C(=O)N[C@@H](CO)C(=O)N[C@@H](CO)C(=O)N[C@H](C(=O)N[C@@H](CC(N)=O)C(=O)N[C@H](C(=O)NCC(=O)N[C@@H](CO)C(=O)N[C@@H](Cc1c[nH]cn1)C(=O)N[C@H](C(=O)N[C@@H](Cc1ccc(O)cc1)C(N)=O)[C@@H](C)O)C(C)C)[C@@H](C)O
notes: also called 47; compound 47

This test has as its target T1, human amylin receptor (amylin 3(a) …). Briefly: SPA displacement of 125I-rat amylin, hAmylin 3(a) receptor membranes. The procedure, abridged: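 One-site competition analysis of SPA counts yielded IC₅₀ as a measure of affinity. Membranes were at 35 ng/μL final; incubation was 120 min at 25° C, pH 7.4.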
(Loss of bound radioactivity is the signal in a displacement assay; it reports binding, not function.)
In the case of B1, the IC50 came to 0.427 nM. In the case of B2, the IC50 turned out to be 0.076 nM. For B3 the value was 0.552 nM; for B4, 0.275 nM; for B5, 0.195 nM. Regarding B6, the IC50 turned out to be 0.344 nM.

As a reminder, the IC50 is the concentration that gives 50% inhibition.
